Measurements from paper PMC12417186.

How the values were obtained:
[1] = target: C3b (commercial), Complement Technology (human) (UniProt P01024); experiment: SPR; on-chip convertase assay: 600 nM FB and 100 nM FD injected 3 min over biotinylated C3b on SA chip, 10 min dissociation; 25°C; PBS, 0.05% Tween20, 1 mM MgCl2; exponential decay fit of 200-780 s; mean of three curves; 'estimated'
[2] = target: C3b purified from plasma of donor D2 by the novel direct method (human) (UniProt P01024); experiment: as above
[3] = target: C3b purified from plasma of donor D1 by the novel direct method (human) (UniProt P01024); experiment: as above
[4] = target: C3b purified from plasma of donor D3 by the novel direct method (human) (UniProt P01024); experiment: as above
[5] = target: C3b (commercial), Complement Technology (human) (UniProt P01024); experiment: SPR; C3b biotinylated at the thioester sulfhydryl, immobilised on SA sensor chip (950-1050 RU); analytes injected 2 min at 30 µl/min; 25°C; PBS, 0.05% Tween20, 1 mM MgCl2; 1:1 steady-state model; Biacore X100
[6] = target: C3b purified from plasma of donor D2 by the novel direct method (human) (UniProt P01024); experiment: as above
[7] = target: C3b purified from plasma of donor D1 by the novel direct method (human) (UniProt P01024); experiment: as above
[8] = target: C3b purified from plasma of donor D3 by the novel direct method (human) (UniProt P01024); experiment: as above

Bb fragment of Factor B in the alternative pathway convertase C3bBb (from UniProt P00751 260-764) (domain or fragment)
koff [1]: 0.0019 s⁻¹
koff [2]: 0.002 s⁻¹
koff [3]: 0.002 s⁻¹
koff [4]: 0.0019 s⁻¹

complement Factor H CCPs 19-20 (domain or fragment)
Kd [5]: 9300 nM
Kd [6]: 10400 nM
Kd [7]: 10500 nM
Kd [8]: 10600 nM

variable domain of the complement receptor of the immunoglobulin superfamily (domain or fragment)
Kd [5]: 754 nM
Kd [6]: 944 nM
Kd [7]: 860 nM
Kd [8]: 795 nM

complement receptor 1 (CR1) complement control protein (CCP) domains 15-17 (domain or fragment)
Kd [5]: 476 nM
Kd [6]: 650 nM
Kd [7]: 485 nM
Kd [8]: 438 nM
